B1: murine monoclonal antibody directed to human mannose binding lectin (the "initial antibody" of Example 1) (antibody, V domains shown)
VH: VQLQESGPGLVKPSQSLSLTCTVTGYSITSDYAWNWIRQFPGNKLEWMGYISYSGSTSYNPSLKSRVSITRDTSKNQFFLQLNSVTTEDTATYYCARWESWFAYWGQGTLVTVSA
VL: DIVLTQSPATLSVTPGDSVSLSCRASQSISNDLHWYQQKSHESPRLLIKYASQSISGIPSRFSGSGSGTDFTLSINSVETEDFGMYFCQQSNSWPYTFGGGTKLEIK
B2: AZN-D1, murine monoclonal antibody directed to h-DC-SIGN (the "initial antibody" of Example 2) (antibody, V domains shown)
VH: QVQLQQSGPQSVRPGASVKISCKASGYSFTSYWMGWVKQRPGQGLEWIGMIDPFDSESRLNQEFKDKATLTVDKSSSTVYMQLSSPTSEDSAIYYCVRRNGGYYVFDSWGQGTTLTVSS
VL: DVLMTQSPLSLPVSLGDKASISCRSSQNIVHSNGDTYLEWYLQRPGQSPKLLIFKVSNRFSGVPDRFSGSGSGTDFILKISRVEAEDLGVYYCFQGSHVPWTFGGGTKLEIK

Tests used:
[1] = target: mannan-binding lectin (MBL) (human, UniProt P11226 21-248); assay: BIAcore 3000
mannan-binding lectin (MBL), sequence (P11226 21-248): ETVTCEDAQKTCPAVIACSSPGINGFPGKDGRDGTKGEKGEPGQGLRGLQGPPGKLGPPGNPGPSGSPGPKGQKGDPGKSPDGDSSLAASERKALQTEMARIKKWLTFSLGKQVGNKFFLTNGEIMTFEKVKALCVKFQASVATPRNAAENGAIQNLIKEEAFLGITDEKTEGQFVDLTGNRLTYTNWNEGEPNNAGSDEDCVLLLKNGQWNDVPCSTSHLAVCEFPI

hDC-SIGN = target: T1, hDC-SIGN (human, UniProt Q9NNX6 60-404); assay: BIAcore 3000
T1 chain: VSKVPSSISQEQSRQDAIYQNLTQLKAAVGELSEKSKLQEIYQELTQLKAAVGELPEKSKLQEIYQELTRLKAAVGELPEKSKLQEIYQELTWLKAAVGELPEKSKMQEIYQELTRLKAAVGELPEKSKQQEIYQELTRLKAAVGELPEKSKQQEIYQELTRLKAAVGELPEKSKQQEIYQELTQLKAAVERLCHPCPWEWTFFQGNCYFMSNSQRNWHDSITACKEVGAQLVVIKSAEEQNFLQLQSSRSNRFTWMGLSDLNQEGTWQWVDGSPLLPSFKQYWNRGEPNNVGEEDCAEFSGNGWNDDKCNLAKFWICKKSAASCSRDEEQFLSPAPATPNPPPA

Binder	Kd [1] [nM]	Kd (hDC-SIGN) [nM]
B1	1.24	–
B2	–	3.88

Reference: patent US20100076177A1 (published 2010)
